# Assay results published in patent publication US20190202912A1 (NEXTCURE, published 2019).
# T1: S15-extra cellular domain (ECD) monomer (human, UniProt Q6ZMC9 20-263)
# T1 construct: also called S15 monomer protein
# T1 sequence: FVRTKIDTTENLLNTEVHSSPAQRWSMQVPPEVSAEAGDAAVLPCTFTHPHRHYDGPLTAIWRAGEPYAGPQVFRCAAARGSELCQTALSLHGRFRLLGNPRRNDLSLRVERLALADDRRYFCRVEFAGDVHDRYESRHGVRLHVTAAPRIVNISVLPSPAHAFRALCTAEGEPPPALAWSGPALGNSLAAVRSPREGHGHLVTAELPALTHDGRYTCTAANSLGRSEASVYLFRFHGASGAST
# T2: hS15 (Homo sapiens, UniProt Q6ZMC9)
# T2 construct: full length, cell surface; also called human Siglec-15; huS15
# T2 sequence (membrane protein on cells, looked up): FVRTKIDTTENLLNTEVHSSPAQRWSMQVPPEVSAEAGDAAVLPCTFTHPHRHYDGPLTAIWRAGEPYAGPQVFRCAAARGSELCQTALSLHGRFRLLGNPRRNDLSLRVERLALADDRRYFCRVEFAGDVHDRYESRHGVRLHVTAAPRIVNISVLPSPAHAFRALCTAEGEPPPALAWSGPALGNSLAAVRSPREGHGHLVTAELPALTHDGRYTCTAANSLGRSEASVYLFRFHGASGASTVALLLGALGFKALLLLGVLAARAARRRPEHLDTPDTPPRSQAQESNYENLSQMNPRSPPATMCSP
# Target: T3, mS15 (Mus musculus)
# T3 construct: full length, cell surface; also called mouse Siglec-15
# Experiment: flow cytometry titration, 293T cells transfected with mouse Siglec-15 (293T.mS15)
# Experimental: […] Cells were incubated at 4 degrees C. for 30 minutes, then washed twice with excess FACS buffer. Cells were resuspended in 100 ul FACS buffer and 0.005 ug of anti-mouse IgG-PE secondary antibody was added to samples, incubated for 30 minutes and washed twice with excess FACS buffer. Cells were fixed in fixation buffer (2% formaldehyde in PBS) and subsequently analyzed by flow cytometry.
row,EC50 (read off the curve),Binder
1,~0.05 µg/mL,"5G12 (antibody, V domains shown, Mouse anti-human Siglec-15 mAb) VH: QVQLQQPGAELVKPGASVKMSCKASGYTFTSYWITWVIQRPGQGLEWIGDIYCGSDTMHYNEKFKNKATLTVDTSSSTAYMQLSSLTSEDSAVYYCARWWDYGSSYDYFDYWGQGTTLTVSS VL: DIKMTQSPSSMYASLGERVTITCKASQDINSYLSWFQQKPGKSPKTLIYRANRLVDGVPSRFSGSGSGQDYSLTISSLEYEDMGIYYCLQYDEFPYTFGGGTKLEIKR"
2,~0.05 µg/mL,"1H3 (antibody, V domains shown, Mouse anti-human Siglec-15 mAb) VH: QVQLKESGPGLVAPSQSLSITCTVSGFSLSNYGVHWVRQPPGKGLEWLVLIWSDGSTTYNSALKSRLSISKDNSKSQVFLKMNSLQTGDTAMYYCARHPYDDYSGYYYTMDYWGQGTSVTVSS VL: DIQMTQASSSLSVSLGGRVTITCKASDHINNWLAWYQQKPGNAPRLLISGATSLETGVPSRFSGSGSGKDYTLSITSLQTEDVATYYCQQYWSSPLTFGAGTKLELK"

# Target: T1, S15-extra cellular domain (ECD) monomer
# Experiment: BLI (Octet RED96), mAb on anti-human Fc sensors, S15-ECD monomer in solution, global fit
# Experimental: Optimized KD experiments were performed on a ForteBio Octet RED96 instrument using anti-human Fc capture (AHC, 18-5060; ForteBio) sensors. Assay buffer was PBS containing 0.05% Tween-20 and regeneration buffer was 10 mM glycine (pH 1.5). First the antibodies were loaded at 1 μg/mL for 600 seconds. This was followed by a 60 second baseline step, a 300 second association step in S15-extra cellular domain (ECD) monomer, and finally a 1200 second dissociation step. The monomer concentrations ranged from 100 nM to 1.56 nM in a two-fold dilution series and a blank well was included. Data was processed using ForteBio's Data Analysis Software 7.0; a global fit was used, along with reference well subtraction. Reported values are the average of at least three independent octet runs.
Binder,Kd,koff,kon
"105A (antibody, V domains shown, Mouse anti-human Siglec-15 mAb; also called NC105) VH: EVQLQQSGAELVRPGASVKLSCTASGFNIKDDYMHWVKQRPEQGLEWIGCIDPENGDIEYASRFQGKATMTADTSSNTAYLQLTSLTSADTAVYYCTTYVGFGYWGQGTLVTVSA VL: DVLMTQTPLSLPVSLGDQASISCRSSQSIVHSNGNTYLEWYLQKPGQSPKLLIYKVSNRFSGVPDRFSGSGSGTDFTLKISRVEAEDLGVYYCFQGSHVPLTFGAGTKLELK",1.39 nM,0.000102 s⁻¹,72000 M⁻¹ s⁻¹
"1C12 (antibody, V domains shown, Mouse anti-human Siglec-15 mAb) VH: EVQLVESGGGLVKPGGSLKLSCAASGFSFSDYGMHWVRQAPEKGLEWVAYISSGSSILYYADIVKGRFTISRDNAKNTLFLQMTSLRSEDTAMYYCARDHYHGNGSDYWGQGTTLTVSS VL: DVLMTQTPLSLPVSLGDQASISCRSSQSIVHSNGNTYLEWYLQKPGQSPKLLIYKVSNRFSGVPDRFSGSGSGTDFTLKISRVEAEDLGVYYCFQGSHVPWTFGGGTKLEIK",4.01 nM,0.000423 s⁻¹,105000 M⁻¹ s⁻¹
"99B (antibody, V domains shown, Mouse anti-human Siglec-15 mAb; also called NC99) VH: QVQLQQSGAELARPGASVKLSCKASGYTFTSDGITWLKQRTGQGLEWIGQIHPRSGNTYYNEKFKGKATLTADKSSSTAYMELRSLTSEDSAVYFCAKTGTGDYWGQGTTLTVSS VL: not shown",3.86 nM,0.000102 s⁻¹,32000 M⁻¹ s⁻¹

# Second part, the binder after the results:
Kd,koff,kon,Binder
3.08 nM,5.9e-05 s⁻¹,23000 M⁻¹ s⁻¹,"104B (antibody, V domains shown, Mouse anti-human Siglec-15 mAb; also called NC104) VH: QVQLQQSGPELARPGASVKLSCKASGYTFTSYGISWVKQRTGQGLEWIGQIHPRSGNTYYNENFKGKATLTAAKSSSTAYLELRSLTSEDSAVYFCAREGGPDYWGQGTTLTVSS VL: not shown"
0.3 nM,0.000123 s⁻¹,421000 M⁻¹ s⁻¹,"5G12 (antibody, V domains shown, Mouse anti-human Siglec-15 mAb) VH: QVQLQQPGAELVKPGASVKMSCKASGYTFTSYWITWVIQRPGQGLEWIGDIYCGSDTMHYNEKFKNKATLTVDTSSSTAYMQLSSLTSEDSAVYYCARWWDYGSSYDYFDYWGQGTTLTVSS VL: DIKMTQSPSSMYASLGERVTITCKASQDINSYLSWFQQKPGKSPKTLIYRANRLVDGVPSRFSGSGSGQDYSLTISSLEYEDMGIYYCLQYDEFPYTFGGGTKLEIKR"
2.94 nM,0.000211 s⁻¹,73000 M⁻¹ s⁻¹,"6A (antibody, V domains shown, Mouse anti-human Siglec-15 mAb; also called NC6) VH: EVQLQQSGAELVRPGASVKLSCTASGFNIKDDYMHWVKQRPEQGLEWIGCIDPENGDTEYASKFQDKATITTDTSSNTAYLQLSSLTSEDTAVYYCTTYVGFAYWGQGTLVTVST VL: DVLMTQTPLSLPVSLGDQASISCRSSQSIVHSNGNTYLEWYLQKPGQSPKLLIYKVSNRFSGVPDRFSGSGSGTDFTLRISRVEAEDLGVYYCFQGSHVPLTFGAGTKLELK"
1.93 nM,0.000143 s⁻¹,72000 M⁻¹ s⁻¹,"77A (antibody, V domains shown, Mouse anti-human Siglec-15 mAb; also called NC77) VH: EVQLQQSGAELVRPGASVKLSCTASGFNIKDDYMHWVKQRPEQGLEWIGCIDPENGDTEYASKFQGKATITADTSSNTVYLQLSSLTSEDTAVYYCTTYVGFGYWGQGTLVTVSA VL: DVLMTQSPLSLPVSLGDQASISCRSSQNIVHSNGNTYLEWYLKKPGQSPKLLIYKVSNRFSGVPDRFSGSGSGTDFTLKISRVEAEDLGMYYCFQGSHVPLTFGAGTKLELK"
4.33 nM,0.000609 s⁻¹,143000 M⁻¹ s⁻¹,"1B2 (antibody, V domains shown, Mouse anti-human Siglec-15 mAb) VH: EVQLVESGGGFVKPGGSLKLSCAASGFTFSDYGMHWVRQAPEKGLEWVAYISSGSSIIYYADTVKGRFTISRDNAKNTLFLQMTSLRSEDTAMYYCARDHYHGNGSDYWGQGTTLTVSS VL: DVLMTQTPLSLPVSLGDQASISCRSSQSIVHSNGNTYLEWYLQKPGQSPKLLIYKVSNRFSGVPDRFSGSGSGTDFTLKISRVEAEDLGVYYCFQGSHVPWTFGGGTKLEIK"
0.11 nM,3.9e-05 s⁻¹,359000 M⁻¹ s⁻¹,"1H3 (antibody, V domains shown, Mouse anti-human Siglec-15 mAb) VH: QVQLKESGPGLVAPSQSLSITCTVSGFSLSNYGVHWVRQPPGKGLEWLVLIWSDGSTTYNSALKSRLSISKDNSKSQVFLKMNSLQTGDTAMYYCARHPYDDYSGYYYTMDYWGQGTSVTVSS VL: DIQMTQASSSLSVSLGGRVTITCKASDHINNWLAWYQQKPGNAPRLLISGATSLETGVPSRFSGSGSGKDYTLSITSLQTEDVATYYCQQYWSSPLTFGAGTKLELK"
0.44 nM,0.000134 s⁻¹,304000 M⁻¹ s⁻¹,"6F8 (antibody, V domains shown, Mouse anti-human Siglec-15 mAb) VH: QVQLKQSGPELVRPGASVKISCEASGYTFTDYYVNWVKQRPGRGLEWIGKIGPGSVSIYYNEKFKDKATLTADKSSSTAYMQLSGLTSEDSAVYFCASYYYGFAYWGQGTLVTVSA VL: DIVMTQAAPSVPVTPGESVSISCRSSKSLLHSNGNTYLYWFLQRPGQSPQLLIYRMSNLASGVPDRFGGSGSGTAFTLRISRVEAEDVGVYYCMQHLEYPYTFGGGTKLEIKR"
4.84 nM,0.0001 s⁻¹,23000 M⁻¹ s⁻¹,"82B (antibody, V domains shown, Mouse anti-human Siglec-15 mAb; also called NC82) VH: QVQLQQSGAELARPGASVKLSCKASGYTFTSDGITWVKQRTGQGLEWIGQIHPRSGNTYYNGKFKGKATLTADRSSSTTYMELRSLTSEDSAVYFCAKTGTGDYWGQGTTLTVSS VL: not shown"
1.42 nM,0.00014 s⁻¹,99000 M⁻¹ s⁻¹,"92A (antibody, V domains shown, Mouse anti-human Siglec-15 mAb; also called NC92) VH: DVQLQESGPGLVKFSQSLSLTCSVTGYSITSGYYWNWIRQFPGNKLEWMGYIRHDGSNNYNPSLKNRISITRDTSKNQFFLKLNSVITEDTATYYCVREIYDGSSGYFDVWGTGTTVTVSS VL: QIVLTQSPAIMSASLGEEITLICSASSSVSYMHWYQQKSGTSPKLLIYRTSNLASGVPSRFSGSGSGTFYSLTISSVEAEDAADYYCHQWSSWTFGGGTQLEIK"

# Target: T2, hS15
# Experiment: flow cytometry, live 293T.hS15 cells, 1 µg mAb/1E05 cells/100 µL, PE secondary
# Experimental: Cells were sorted to establish human S15 and mouse S15 stable cell lines. […] 1E05 cells in 100 μL FACS buffer were aliquoted to separate tubes and 1 μg of purified mAb was added. Cells were incubated at 4 degrees C. for 30 minutes, then washed twice with excess FACS buffer. Cells were resuspended in 100 μL FACS buffer and 0.005 μg of anti-mouse IgG-PE secondary antibody was added to samples, incubated for 30 minutes and washed twice with excess FACS buffer. Cells were fixed in fixation buffer and subsequently analyzed by flow cytometry.
row,binding result,Binder
1,binds,"NC63 (antibody, V domains shown, mouse anti-human Siglec-15 mAb; also called 63A) VH: QVQLQQSGAELARPGASVKLSCKASGYTFTSYGISWVKQRTGQGLEWIGQIYPRSDNTYYNERFKGKATLTADKSSSTAYMALRSLTSEDSAVYFCAREGGPDYWGQGTTLTVSS VL: not shown"
2,binds,"NC28 (antibody, V domains shown, mouse anti-human Siglec-15 mAb; also called 28A) VH: QVQLQQSGAELARPGASVKLSCKASGYTFISYGITWVKQRTGQGLEWIGEIHPRSGNTYYNENFKDRASLTADKSSSTAYMEVRSLTSEDSAVYFCARGGPGDYWGQGTTLTVSS VL: not shown"
3,binds,"9A5 (antibody, V domains shown) VH: HVQLQQSGAELARPGASVKLSCKASGYTFTSYGLIWVKQRTGQGLEWIGEIYPRSGNTYYNEKFKGKATLTADISSSTAYMELRSLTSEDSAVYFCASSSPHGDYWGQGTTLTVSS VL: not shown"
